# Reference: PMC3633087
# Biological target: p11-AnxA2 peptide cassette (UniProt P60903)
# Assay: crystal structure
substance,measurement,value
p11-AnxA2 peptide cassette (from UniProt P60903 1-97),stoichiometry N,2
